Data set [1] deals with the molecule itself. Nature of the data set: SEC; Superdex-200 size exclusion chromatography of secreted wild-type CaSR ECD; 20 mM Tris pH 8.0, 150 mM NaCl. (In general: Size exclusion chromatography separates by hydrodynamic size, large species first.)
Data set [2] concerns the molecule itself. Nature of the data set: SDS gel under reducing and non-reducing conditions; purified CaSR ECD mutant (N386Q, S402N, N468Q) after Superdex-200, with (+DTT) and without (-DTT) reducing agent.
Data set [3] concerns the molecule itself. Nature of the data set: crystal structure; form I crystal, space group F222, one molecule per asymmetric unit, homodimer with a crystallographic symmetry-related molecule; 1.5 M Li2SO4, 100 mM Tris pH 8.5, 2 mM CaCl2, 20°C; inactive (open-open) state.

B1: wild-type human CaSR ECD (domain or fragment, UniProt P41180 20-612, looked up)
chain: YGPDQRAQKKGDIILGGLFPIHFGVAAKDQDLKSRPESVECIRYNFRGFRWLQAMIFAIEEINSSPALLPNLTLGYRIFDTCNTVSKALEATLSFVAQNKIDSLNLDEFCNCSEHIPSTIAVVGATGSGVSTAVANLLGLFYIPQVSYASSSRLLSNKNQFKSFLRTIPNDEHQATAMADIIEYFRWNWVGTIAADDDYGRPGIEKFREEAEERDICIDFSELISQYSDEEEIQHVVEVIQNSTAKVIVVFSSGPDLEPLIKEIVRRNITGKIWLASEAWASSSLIAMPQYFHVVGGTIGFALKAGQIPGFREFLKKVHPRKSVHNGFAKEFWEETFNCHLQEGAKGPLPVDTFLRGHEESGDRFSNSSTAFRPLCTGDENISSVETPYIDYTHLRISYNVYLAVYSIAHALQDIYTCLPGRGLFTNGSCADIKKVEAWQVLKHLRHLNFTNNMGEQVTFDECGDLVGNYSIINWHLSPEDGSIVFKEVGYYNVYAKKGERLFINEEKILWSGFSREVPFSNCSRDCLAGTRKGIIEGEPTCCFECVECPDGEYSDETDASACNKCPDDFWSNENHTSCIAKEIEFLSWTEPF
modifications: heavily glycosylated
notes: signal peptide in the construct; human calcium-sensing receptor (CaSR), extracellular domain, residues 1-612; The C-terminal Flag tag is told for 'each construct' in the paragraph on the mutants; the wild type was also purified on anti-Flag M2 and held by anti-Flag M2 in the scintillation proximity assay with L-Trp (not a protein-protein experiment); also called wt-CaSR ECD; extracellular domain …
Consider B1, for which the binding result in data set [1] is “binds”.

B2: human CaSR ECD mutant carrying three glycosylation-site mutations (N386Q, S402N and N468Q) (domain or fragment, UniProt P41180 20-612, looked up)
chain: YGPDQRAQKKGDIILGGLFPIHFGVAAKDQDLKSRPESVECIRYNFRGFRWLQAMIFAIEEINSSPALLPNLTLGYRIFDTCNTVSKALEATLSFVAQNKIDSLNLDEFCNCSEHIPSTIAVVGATGSGVSTAVANLLGLFYIPQVSYASSSRLLSNKNQFKSFLRTIPNDEHQATAMADIIEYFRWNWVGTIAADDDYGRPGIEKFREEAEERDICIDFSELISQYSDEEEIQHVVEVIQNSTAKVIVVFSSGPDLEPLIKEIVRRNITGKIWLASEAWASSSLIAMPQYFHVVGGTIGFALKAGQIPGFREFLKKVHPRKSVHNGFAKEFWEETFNCHLQEGAKGPLPVDTFLRGHEESGDRFSQSSTAFRPLCTGDENINSVETPYIDYTHLRISYNVYLAVYSIAHALQDIYTCLPGRGLFTNGSCADIKKVEAWQVLKHLRHLQFTNNMGEQVTFDECGDLVGNYSIINWHLSPEDGSIVFKEVGYYNVYAKKGERLFINEEKILWSGFSREVPFSNCSRDCLAGTRKGIIEGEPTCCFECVECPDGEYSDETDASACNKCPDDFWSNENHTSCIAKEIEFLSWTEPF
modifications: N-acetyl-glucosamine seen at Asn90, Asn287, Asn488, Asn541 of one protomer and Asn541 of the other
notes: signal peptide in the construct; human calcium-sensing receptor (CaSR), extracellular domain, residues 1-612; modelled residues 20-119, 135-359, 393-598 in one protomer and 22-122, 136-360, 392-602 in the other; Disulfide-tethered homodimer; cloned into the pFBDM vector; also called calcium-sensing receptor extracellular domain; form II crystal protein; source: sf9 insect cells infected with …
As to B2, the binding result in data set [2] is on record as “binds”.

B3: human CaSR ECD mutant carrying two glycosylation-site mutations (N386Q, S402N), partially deglycosylated with Endo H (domain or fragment, UniProt P41180 20-612, looked up)
chain: YGPDQRAQKKGDIILGGLFPIHFGVAAKDQDLKSRPESVECIRYNFRGFRWLQAMIFAIEEINSSPALLPNLTLGYRIFDTCNTVSKALEATLSFVAQNKIDSLNLDEFCNCSEHIPSTIAVVGATGSGVSTAVANLLGLFYIPQVSYASSSRLLSNKNQFKSFLRTIPNDEHQATAMADIIEYFRWNWVGTIAADDDYGRPGIEKFREEAEERDICIDFSELISQYSDEEEIQHVVEVIQNSTAKVIVVFSSGPDLEPLIKEIVRRNITGKIWLASEAWASSSLIAMPQYFHVVGGTIGFALKAGQIPGFREFLKKVHPRKSVHNGFAKEFWEETFNCHLQEGAKGPLPVDTFLRGHEESGDRFSQSSTAFRPLCTGDENINSVETPYIDYTHLRISYNVYLAVYSIAHALQDIYTCLPGRGLFTNGSCADIKKVEAWQVLKHLRHLNFTNNMGEQVTFDECGDLVGNYSIINWHLSPEDGSIVFKEVGYYNVYAKKGERLFINEEKILWSGFSREVPFSNCSRDCLAGTRKGIIEGEPTCCFECVECPDGEYSDETDASACNKCPDDFWSNENHTSCIAKEIEFLSWTEPF
modifications: partially deglycosylated with Endo H; N-acetyl-glucosamine seen at Asn261, Asn287, Asn446, Asn468, Asn488, Asn541, Asn594; inter-subunit disulfide bond formed by C129
notes: signal peptide in the construct; human calcium-sensing receptor (CaSR), extracellular domain, residues 1-612; modelled residues 21-130 and 136-603; Disulfide-linked homodimer; cloned into the pFBDM vector; also called calcium-sensing receptor extracellular domain; form I crystal protein; source: sf9 insect cells infected with baculovirus, with kifunensine, secreted
B3: the binding result in data set [3] was “binds”.

(Values after publication PMC4977154, “Structural mechanism of ligand activation in human calcium-sensing receptor” (eLife, 2016).)
